The source of these data is the supplement of paper PMC10567573.

B1: CIB1 (parent)
chain: DLSRLVNCLTGEGEDTRLSASEMK
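Also: lentivirally expressed fusions sorted by FACS into six bins by GFP to DsRed ratio, PSI derived from sequencing read proportions per bin multiplied by bin number.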

In the series the parent is B1. Kind of series: protein stability index of a GFP-peptide fusion (GPS, HEK-293T) (PSI 1-6); higher = more stable. The settings on record: c terminus: a fixed tail appended.
With DLSRLVNCLTGEGETTRLSASEMK [D15T], the protein stability index came to 2.12.

As for DLSRLVNCLTGEGEMTRLSASEMK [D15M], the protein stability index came to 1.61.

As for DLSRLVNCLTGEGEFTRLSASEMK [D15F], the protein stability index was 2.32.

Regarding DLSRLVNCLTGEGEYTRLSASEMK [D15Y], the protein stability index amounted to 2.06.

DLSRLVNCLTGEGEDTRLSASEMM [K24M]: the protein stability index worked out at 2.45.

Take DLSRLVNCLTGEGEDTRLSASEMP [K24P]: the protein stability index amounted to 2.67.

Turning to DLSRLVNCLTGEGEDTRLSASEMN [K24N], the protein stability index is 2.99.

With DLSRLVNCLTGEGEDTRLSASEMF [K24F], the protein stability index came to 2.57.

For DLSRLVNCLTGEGEDTRLSASEMS [K24S], the protein stability index stood at 2.89.

Consider DLSRLVNCLTGEGEDTRLSASEMQ [K24Q], for which the protein stability index amounted to 3.31.

DLSRLVNCLTGEGEDTRLSASEMC [K24C]: the protein stability index came to 3.03.

DLSRLVNCLTGEGEDTRLSASEMI [K24I]: the protein stability index stood at 1.81.

For DLSRLVNCLTGEGEDTRLSASEME [K24E], the protein stability index is 3.9.

With DLSRLVNCLTGEGEDTRLSASEMW [K24W], the protein stability index is 1.86.

Regarding DLSRLVNCLTGEGEDTRLSASEMH [K24H], the protein stability index came out at 2.37.

In the case of DLSRLVNCLTGEGEDTRLSASEMY [K24Y], the protein stability index came to 2.23.

With DLSRLVNCLTGEGEDTRLSASEMA [K24A], the protein stability index is 3.25.

For DLSRLVNCLTGEGEDTRLSASEMV [K24V], the protein stability index came to 2.04.

Regarding DLSRLVNCLTGEGEDTRLSASKMK [E22K], the protein stability index was determined as 4.44.

For DLSRLVNCLTGEGEDTRLSASRMK [E22R], the protein stability index amounted to 2.88.

Take DLSRLVNCLTGEGEDTRLSASLMK [E22L]: the protein stability index was 2.29.

Take DLSRLVNCLTGEGEDTRLSASTMK [E22T]: the protein stability index stood at 3.61.

For the variant DLSRLVNCLTGEGEDTRLSASYMK [E22Y], the protein stability index was 3.08.

For the variant DLSRLVNCLTGEGEDTRLSASMMK [E22M], the protein stability index came to 2.46.

As for DLSRLVNCLTGEGEDTRLSASCMK [E22C], the protein stability index was 2.76.

Regarding DLSRLVNCLTGEGEDTRLSASHMK [E22H], the protein stability index was 2.49.

Consider DLSRLVNCLTGEGEDTRLSASNMK [E22N], for which the protein stability index stood at 3.54.

For the variant DLSRLVNCLTGEGEDTRLSASIMK [E22I], the protein stability index was determined as 2.83.

In the case of DLSRLVNCLTGEGEDTRLSASGMK [E22G], the protein stability index is 2.81.

In the case of DLSRLVNCLTGEGEDTRLSASPMK [E22P], the protein stability index came out at 4.12.

With DLSRLVNCLTGEGEDTRLSASSMK [E22S], the protein stability index stood at 3.35.

DLSRLVNCLTGEGEDTRLSASFMK [E22F]: the protein stability index was determined as 2.21.

For the variant DLSRLVNCLTGEGEDTRLSASAMK [E22A], the protein stability index turned out to be 3.08.

For the variant DLSRLVNCLTGEGEDTRLSATEMK [S21T], the protein stability index was 3.1.

DLSRLVNCLTGEGEDTRLSAMEMK [S21M]: the protein stability index came to 2.98.

Consider DLSRLVNCLTGEGEDTRLSAGEMK [S21G], for which the protein stability index is 1.68.

Regarding DLSRLVNCLTGEGEDTRLSAHEMK [S21H], the protein stability index is 3.01.

With DLSRLVNCLTGEGEDTRLSAAEMK [S21A], the protein stability index is 2.1.

As to DLSRLVNCLTGEGEDTRLSAEEMK [S21E], the protein stability index was 4.15.

DLSRLVNCLTGEGEDTRLSAREMK [S21R]: the protein stability index was determined as 1.9.

DLSRLVNCLTGEGEDTRLSAPEMK [S21P]: the protein stability index was determined as 3.5.

As to DLSRLVNCLTGEGEDTRLSADEMK [S21D], the protein stability index worked out at 3.57.

As to DLSRLVNCLTGEGEDTRLSALEMK [S21L], the protein stability index stood at 2.06.

Turning to DLSRLVNCLTGEGEDTRLSAYEMK [S21Y], the protein stability index came to 3.14.

Regarding DLSRLVNCLTGEGEDTRLSAVEMK [S21V], the protein stability index worked out at 2.17.

For the variant DLSRLVNCLTGEGEDTRLSACEMK [S21C], the protein stability index came to 2.63.

As to DLSRLVNCLTGEGEDTRLSAKEMK [S21K], the protein stability index is 4.3.

In the case of DLSRLVNCLTGEGEDTRLSAFEMK [S21F], the protein stability index is 2.36.

In the case of DLSRLVNCLTGEGEDTRLSASEAK [M23A], the protein stability index is 3.76.

With DLSRLVNCLTGEGEDTRLSASEIK [M23I], the protein stability index worked out at 3.03.

As for DLSRLVNCLTGEGEDTRLSASENK [M23N], the protein stability index was determined as 3.46.

Turning to DLSRLVNCLTGEGEDTRLSASEFK [M23F], the protein stability index is 3.12.

Regarding DLSRLVNCLTGEGEDTRLSASEKK [M23K], the protein stability index was 4.14.

Regarding DLSRLVNCLTGEGEDTRLSASEQK [M23Q], the protein stability index was 2.6.

Turning to DLSRLVNCLTGEGEDTRLSASEHK [M23H], the protein stability index worked out at 2.71.

On to DLSRLVNCLTGEGEDTRLSASEDK [M23D], for which the protein stability index is 2.32.

As for DLSRLVNCLTGEGEDTRLSASERK [M23R], the protein stability index came out at 2.68.

On to DLSRLVNCLTGEGEDTRLSASEVK [M23V], for which the protein stability index came to 3.17.

With DLSRLVNCLTGEGEDTRLSASETK [M23T], the protein stability index amounted to 3.14.

As to DLSRLVNCLTGEGEDTRLSASEWK [M23W], the protein stability index was found to be 2.81.

Turning to DLSRLVNCLTGEGEDTRLSASELK [M23L], the protein stability index was found to be 3.23.

Regarding DLSRLVNCLTGEGEDTRLSASEYK [M23Y], the protein stability index amounted to 2.7.

As for DLSRLVNCLTGEGEDTRLSASECK [M23C], the protein stability index was determined as 2.85.

Consider DLSRLVNCLTGEGEDTSLSASEMK [R17S], for which the protein stability index is 2.84.

DLSRLVNCLTGEGEDTYLSASEMK [R17Y]: the protein stability index amounted to 2.81.

On to DLSRLVNCLTGEGEDTVLSASEMK [R17V], for which the protein stability index is 2.65.

Take DLSRLVNCLTGEGEDTPLSASEMK [R17P]: the protein stability index was found to be 3.35.

With DLSRLVNCLTGEGEDTNLSASEMK [R17N], the protein stability index worked out at 2.76.

As to DLSRLVNCLTGEGEDTALSASEMK [R17A], the protein stability index is 3.68.

As for DLSRLVNCLTGEGEDTMLSASEMK [R17M], the protein stability index was 3.08.

For the variant DLSRLVNCLTGEGEDTWLSASEMK [R17W], the protein stability index is 2.33.

Take DLSRLVNCLTGEGEDTILSASEMK [R17I]: the protein stability index came to 2.97.

In the case of DLSRLVNCLTGEGEDTLLSASEMK [R17L], the protein stability index was 2.59.

In the case of DLSRLVNCLTGEGEDTKLSASEMK [R17K], the protein stability index was determined as 2.82.

Consider DLSRLVNCLTGEGEDTDLSASEMK [R17D], for which the protein stability index is 4.12.

DLSRLVNCLTGEGEDTQLSASEMK [R17Q]: the protein stability index turned out to be 3.1.

As for DLSRLVNCLTGEGEDTELSASEMK [R17E], the protein stability index is 4.53.

With DLSRLVNCLTGEGEDTFLSASEMK [R17F], the protein stability index was 2.99.

Consider DLSRLVNCLTGEGEDTRSSASEMK [L18S], for which the protein stability index turned out to be 3.06.

As to DLSRLVNCLTGEGEDTRWSASEMK [L18W], the protein stability index worked out at 2.78.

Turning to DLSRLVNCLTGEGEDTRPSASEMK [L18P], the protein stability index was 3.79.

As to DLSRLVNCLTGEGEDTRFSASEMK [L18F], the protein stability index came out at 1.85.

Take DLSRLVNCLTGEGEDTRHSASEMK [L18H]: the protein stability index was 4.09.

Consider DLSRLVNCLTGEGEDTRMSASEMK [L18M], for which the protein stability index came out at 2.49.

As for DLSRLVNCLTGEGEDTRQSASEMK [L18Q], the protein stability index was 2.96.

On to DLSRLVNCLTGEGEDTRASASEMK [L18A], for which the protein stability index came out at 3.34.

Regarding DLSRLVNCLTGEGEDTRVSASEMK [L18V], the protein stability index worked out at 3.63.

Take DLSRLVNCLTGEGEDTRRSASEMK [L18R]: the protein stability index was found to be 4.11.

Regarding DLSRLVNCLTGEGEDTRYSASEMK [L18Y], the protein stability index turned out to be 3.12.

Consider DLSRLVNCLTGEGEDTRESASEMK [L18E], for which the protein stability index came out at 2.48.

With DLSRLVNCLTGEGEDTRDSASEMK [L18D], the protein stability index was determined as 4.07.

For the variant DLSRLVNCLTGEGEDTRNSASEMK [L18N], the protein stability index came out at 3.75.

For the variant DLSRLVNCLTGEGEDTRKSASEMK [L18K], the protein stability index was found to be 3.36.

With DLSRLVNCLTGEGEDTRGSASEMK [L18G], the protein stability index was found to be 1.4.
